*1 amine or outer side, *2 acyl side, *3 side chain or, on linkers, in order; H or OH if unused. Where no end group is shown, it is not given here. Side-chain parts run from the residue outwards. The star is where a group is joined. C16 diacid = O=C(O)CCCCCCCCCCCCCCC(=O)*; γGlu = O=C(O)[C@H](CCC(=O)[*:2])N[*:1]; AEEA = NCCOCCOCC(=O)O
T1: human GIP receptor (human, UniProt P48546 22-466)
T1 sequence (looked up): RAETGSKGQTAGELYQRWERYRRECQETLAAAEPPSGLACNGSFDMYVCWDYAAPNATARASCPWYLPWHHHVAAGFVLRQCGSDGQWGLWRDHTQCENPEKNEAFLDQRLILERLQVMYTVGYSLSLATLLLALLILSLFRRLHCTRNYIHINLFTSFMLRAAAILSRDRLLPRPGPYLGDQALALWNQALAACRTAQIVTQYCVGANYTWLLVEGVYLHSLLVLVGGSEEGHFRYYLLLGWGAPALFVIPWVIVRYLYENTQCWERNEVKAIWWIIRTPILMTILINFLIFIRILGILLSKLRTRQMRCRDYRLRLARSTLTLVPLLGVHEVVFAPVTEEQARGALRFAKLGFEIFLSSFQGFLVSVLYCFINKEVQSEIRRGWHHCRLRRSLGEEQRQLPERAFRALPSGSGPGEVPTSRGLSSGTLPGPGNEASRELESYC

B1: AT263 (peptide)
peptide: GGTFISDYSIAMDRIKQQDFVNWLLAQR
HELM: PEPTIDE1{G.G.T.F.I.S.D.Y.S.I.A.M.D.R.I.K.Q.Q.D.F.V.N.W.L.L.A.Q.R}|PEPTIDE2{[O=C(O)CCCCCCCCCCCCCCC(=O)[*:2]].[gGlu]}$PEPTIDE1,PEPTIDE2,16:R3-2:R2$$$V2.0; N-terminus assumed
SMILES: CC[C@H](C)[C@H](NC(=O)[C@H](CO)NC(=O)[C@H](Cc1ccc(O)cc1)NC(=O)[C@H](CC(=O)O)NC(=O)[C@H](CO)NC(=O)[C@@H](NC(=O)[C@H](Cc1ccccc1)NC(=O)[C@@H](NC(=O)CNC(=O)CN)[C@@H](C)O)[C@@H](C)CC)C(=O)N[C@@H](C)C(=O)N[C@@H](CCSC)C(=O)N[C@@H](CC(=O)O)C(=O)N[C@@H](CCCNC(=N)N)C(=O)N[C@H](C(=O)N[C@@H](CCCCNC(=O)CC[C@H](NC(=O)CCCCCCCCCCCCCCC(=O)O)C(=O)O)C(=O)N[C@@H](CCC(N)=O)C(=O)N[C@@H](CCC(N)=O)C(=O)N[C@@H](CC(=O)O)C(=O)N[C@@H](Cc1ccccc1)C(=O)N[C@H](C(=O)N[C@@H](CC(N)=O)C(=O)N[C@@H](Cc1c[nH]c2ccccc12)C(=O)N[C@@H](CC(C)C)C(=O)N[C@@H](CC(C)C)C(=O)N[C@@H](C)C(=O)N[C@@H](CCC(N)=O)C(=O)N[C@@H](CCCNC(=N)N)C(=O)O)C(C)C)[C@@H](C)CC
B2: AT512 (peptide)
peptide: PGTFISDYSIAMDRIKQQDFVNWLLAQR
HELM: PEPTIDE1{P.G.T.F.I.S.D.Y.S.I.A.M.D.R.I.K.Q.Q.D.F.V.N.W.L.L.A.Q.R.[am]}|PEPTIDE2{[O=C(O)CCCCCCCCCCCCCCC(=O)[*:2]].[gGlu].[O=C(COCCOCCN[*:1])[*:2]]}$PEPTIDE1,PEPTIDE2,16:R3-3:R2$$$V2.0; N-terminus assumed
SMILES: CC[C@H](C)[C@H](NC(=O)[C@H](CO)NC(=O)[C@H](Cc1ccc(O)cc1)NC(=O)[C@H](CC(=O)O)NC(=O)[C@H](CO)NC(=O)[C@@H](NC(=O)[C@H](Cc1ccccc1)NC(=O)[C@@H](NC(=O)CNC(=O)[C@@H]1CCCN1)[C@@H](C)O)[C@@H](C)CC)C(=O)N[C@@H](C)C(=O)N[C@@H](CCSC)C(=O)N[C@@H](CC(=O)O)C(=O)N[C@@H](CCCNC(=N)N)C(=O)N[C@H](C(=O)N[C@@H](CCCCNC(=O)COCCOCCNC(=O)CC[C@H](NC(=O)CCCCCCCCCCCCCCC(=O)O)C(=O)O)C(=O)N[C@@H](CCC(N)=O)C(=O)N[C@@H](CCC(N)=O)C(=O)N[C@@H](CC(=O)O)C(=O)N[C@@H](Cc1ccccc1)C(=O)N[C@H](C(=O)N[C@@H](CC(N)=O)C(=O)N[C@@H](Cc1c[nH]c2ccccc12)C(=O)N[C@@H](CC(C)C)C(=O)N[C@@H](CC(C)C)C(=O)N[C@@H](C)C(=O)N[C@@H](CCC(N)=O)C(=O)N[C@@H](CCCNC(=N)N)C(N)=O)C(C)C)[C@@H](C)CC
B3: AT514 (peptide)
peptide: GGTFISDYSIAMDRIK([AEEA-AEEA-γGlu-C16 diacid])QQDFVNWLLAQR-NH2
modifications: N-terminus assumed
SMILES: CC[C@H](C)[C@H](NC(=O)[C@H](CO)NC(=O)[C@H](Cc1ccc(O)cc1)NC(=O)[C@H](CC(=O)O)NC(=O)[C@H](CO)NC(=O)[C@@H](NC(=O)[C@H](Cc1ccccc1)NC(=O)[C@@H](NC(=O)CNC(=O)CN)[C@@H](C)O)[C@@H](C)CC)C(=O)N[C@@H](C)C(=O)N[C@@H](CCSC)C(=O)N[C@@H](CC(=O)O)C(=O)N[C@@H](CCCNC(=N)N)C(=O)N[C@H](C(=O)N[C@@H](CCCCNC(=O)COCCOCCNC(=O)COCCOCCNC(=O)CC[C@H](NC(=O)CCCCCCCCCCCCCCC(=O)O)C(=O)O)C(=O)N[C@@H](CCC(N)=O)C(=O)N[C@@H](CCC(N)=O)C(=O)N[C@@H](CC(=O)O)C(=O)N[C@@H](Cc1ccccc1)C(=O)N[C@H](C(=O)N[C@@H](CC(N)=O)C(=O)N[C@@H](Cc1c[nH]c2ccccc12)C(=O)N[C@@H](CC(C)C)C(=O)N[C@@H](CC(C)C)C(=O)N[C@@H](C)C(=O)N[C@@H](CCC(N)=O)C(=O)N[C@@H](CCCNC(=N)N)C(N)=O)C(C)C)[C@@H](C)CC
B4: AT508 (peptide)
peptide: GGTFISDYSIAMDRIKQQDFVNWLLAQR
HELM: PEPTIDE1{G.G.T.F.I.S.D.Y.S.I.A.M.D.R.I.K.Q.Q.D.F.V.N.W.L.L.A.Q.R.[am]}|PEPTIDE2{[O=C(O)CCCCCCCCCCCCCCC(=O)[*:2]].[gGlu].[O=C(COCCOCCN[*:1])[*:2]]}$PEPTIDE1,PEPTIDE2,16:R3-3:R2$$$V2.0; N-terminus assumed
SMILES: CC[C@H](C)[C@H](NC(=O)[C@H](CO)NC(=O)[C@H](Cc1ccc(O)cc1)NC(=O)[C@H](CC(=O)O)NC(=O)[C@H](CO)NC(=O)[C@@H](NC(=O)[C@H](Cc1ccccc1)NC(=O)[C@@H](NC(=O)CNC(=O)CN)[C@@H](C)O)[C@@H](C)CC)C(=O)N[C@@H](C)C(=O)N[C@@H](CCSC)C(=O)N[C@@H](CC(=O)O)C(=O)N[C@@H](CCCNC(=N)N)C(=O)N[C@H](C(=O)N[C@@H](CCCCNC(=O)COCCOCCNC(=O)CC[C@H](NC(=O)CCCCCCCCCCCCCCC(=O)O)C(=O)O)C(=O)N[C@@H](CCC(N)=O)C(=O)N[C@@H](CCC(N)=O)C(=O)N[C@@H](CC(=O)O)C(=O)N[C@@H](Cc1ccccc1)C(=O)N[C@H](C(=O)N[C@@H](CC(N)=O)C(=O)N[C@@H](Cc1c[nH]c2ccccc12)C(=O)N[C@@H](CC(C)C)C(=O)N[C@@H](CC(C)C)C(=O)N[C@@H](C)C(=O)N[C@@H](CCC(N)=O)C(=O)N[C@@H](CCCNC(=N)N)C(N)=O)C(C)C)[C@@H](C)CC
B5: AT506 (peptide)
peptide: PGTFISDYSIAMDRIKQQDFVNWLLAQR
HELM: PEPTIDE1{P.G.T.F.I.S.D.Y.S.I.A.M.D.R.I.K.Q.Q.D.F.V.N.W.L.L.A.Q.R.[am]}|PEPTIDE2{[O=C(O)CCCCCCCCCCCCCCC(=O)[*:2]].[gGlu]}$PEPTIDE1,PEPTIDE2,16:R3-2:R2$$$V2.0; N-terminus assumed
SMILES: CC[C@H](C)[C@H](NC(=O)[C@H](CO)NC(=O)[C@H](Cc1ccc(O)cc1)NC(=O)[C@H](CC(=O)O)NC(=O)[C@H](CO)NC(=O)[C@@H](NC(=O)[C@H](Cc1ccccc1)NC(=O)[C@@H](NC(=O)CNC(=O)[C@@H]1CCCN1)[C@@H](C)O)[C@@H](C)CC)C(=O)N[C@@H](C)C(=O)N[C@@H](CCSC)C(=O)N[C@@H](CC(=O)O)C(=O)N[C@@H](CCCNC(=N)N)C(=O)N[C@H](C(=O)N[C@@H](CCCCNC(=O)CC[C@H](NC(=O)CCCCCCCCCCCCCCC(=O)O)C(=O)O)C(=O)N[C@@H](CCC(N)=O)C(=O)N[C@@H](CCC(N)=O)C(=O)N[C@@H](CC(=O)O)C(=O)N[C@@H](Cc1ccccc1)C(=O)N[C@H](C(=O)N[C@@H](CC(N)=O)C(=O)N[C@@H](Cc1c[nH]c2ccccc12)C(=O)N[C@@H](CC(C)C)C(=O)N[C@@H](CC(C)C)C(=O)N[C@@H](C)C(=O)N[C@@H](CCC(N)=O)C(=O)N[C@@H](CCCNC(=N)N)C(N)=O)C(C)C)[C@@H](C)CC
B6: AT510 (peptide)
peptide: SGTFISDYSIAMDRIKQQDFVNWLLAQR
HELM: PEPTIDE1{S.G.T.F.I.S.D.Y.S.I.A.M.D.R.I.K.Q.Q.D.F.V.N.W.L.L.A.Q.R.[am]}|PEPTIDE2{[O=C(O)CCCCCCCCCCCCCCC(=O)[*:2]].[gGlu].[O=C(COCCOCCN[*:1])[*:2]]}$PEPTIDE1,PEPTIDE2,16:R3-3:R2$$$V2.0; N-terminus assumed
SMILES: CC[C@H](C)[C@H](NC(=O)[C@H](CO)NC(=O)[C@H](Cc1ccc(O)cc1)NC(=O)[C@H](CC(=O)O)NC(=O)[C@H](CO)NC(=O)[C@@H](NC(=O)[C@H](Cc1ccccc1)NC(=O)[C@@H](NC(=O)CNC(=O)[C@@H](N)CO)[C@@H](C)O)[C@@H](C)CC)C(=O)N[C@@H](C)C(=O)N[C@@H](CCSC)C(=O)N[C@@H](CC(=O)O)C(=O)N[C@@H](CCCNC(=N)N)C(=O)N[C@H](C(=O)N[C@@H](CCCCNC(=O)COCCOCCNC(=O)CC[C@H](NC(=O)CCCCCCCCCCCCCCC(=O)O)C(=O)O)C(=O)N[C@@H](CCC(N)=O)C(=O)N[C@@H](CCC(N)=O)C(=O)N[C@@H](CC(=O)O)C(=O)N[C@@H](Cc1ccccc1)C(=O)N[C@H](C(=O)N[C@@H](CC(N)=O)C(=O)N[C@@H](Cc1c[nH]c2ccccc12)C(=O)N[C@@H](CC(C)C)C(=O)N[C@@H](CC(C)C)C(=O)N[C@@H](C)C(=O)N[C@@H](CCC(N)=O)C(=O)N[C@@H](CCCNC(=N)N)C(N)=O)C(C)C)[C@@H](C)CC

target: T1, human GIP receptor; test: cell-based or functional assay

Row | Binder | CisBio cAMP agonism % Efficacy [%] | CisBio cAMP antagonism % inhib [%] | CisBio cAMP antagonism IC50 [µM] | CisBio cAMP antagonism pIC50 | DiscoveRx cAMP agonism Emax | DiscoveRx cAMP antagonism IC50 [µM] | DiscoveRx cAMP antagonism log IC50 [log M] | DiscoveRx cAMP antagonism % inhib [%]
1 | B1 | 0 | 69 | 0.021 | 6.7 | 8 | 0.074 | -7.1 | 
2 | B2 | 0 | 73 | 0.0794 | 7.1 |  | 0.168 | -6.8 | 80
3 | B3 | 0 | 86 | 0.0316 | 7.5 |  | 0.039 | -7.4 | 80
4 | B4 | 0 | 89 | 0.0926 | 7 |  | 0.023 | -7.6 | 100
5 | B5 | 5 | 78 | 0.147 | 6.8 |  | 0.091 | -7 | 90
6 | B6 | 2 | 87 | 0.0584 | 7.2 |  | 0.03 | -7.5 | 100

From patent publication US20220025010A1 (ANTAG THERAPEUTICS, published 2022)
